This is an account of results in patent publication US20260226192.

For this series, the system named is Engineered trastuzumab antibody design 18 [anti-Her2 ScFv-FC].
Sequence of Engineered trastuzumab antibody design 18 [anti-Her2 ScFv-FC] (chain, as listed by the source, change not shown): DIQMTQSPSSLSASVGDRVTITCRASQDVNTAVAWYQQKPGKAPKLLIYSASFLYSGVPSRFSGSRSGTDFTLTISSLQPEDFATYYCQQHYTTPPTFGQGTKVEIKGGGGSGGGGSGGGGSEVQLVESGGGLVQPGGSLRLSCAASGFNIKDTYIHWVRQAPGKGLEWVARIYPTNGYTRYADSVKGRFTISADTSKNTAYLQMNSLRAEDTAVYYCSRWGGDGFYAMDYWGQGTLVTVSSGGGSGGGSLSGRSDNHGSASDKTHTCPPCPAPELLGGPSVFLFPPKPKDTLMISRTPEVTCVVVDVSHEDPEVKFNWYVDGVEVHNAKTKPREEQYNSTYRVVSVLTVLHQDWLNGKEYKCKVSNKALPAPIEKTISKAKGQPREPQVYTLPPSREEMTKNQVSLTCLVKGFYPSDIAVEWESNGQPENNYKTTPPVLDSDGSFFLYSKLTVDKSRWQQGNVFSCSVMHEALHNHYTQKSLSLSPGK

As to uPA protease, the “protease digestion with uPA (1:1 molar), SDS-PAGE” value is “uPA cleaved the antibody variants and generated F(ab) fragments in a similar manner as it did for the other designs”.
